# From PMC10645729
# T1: human ribonucleotide reductase large subunit RRM1 (human) (UniProt P23921)
# T1 sequence: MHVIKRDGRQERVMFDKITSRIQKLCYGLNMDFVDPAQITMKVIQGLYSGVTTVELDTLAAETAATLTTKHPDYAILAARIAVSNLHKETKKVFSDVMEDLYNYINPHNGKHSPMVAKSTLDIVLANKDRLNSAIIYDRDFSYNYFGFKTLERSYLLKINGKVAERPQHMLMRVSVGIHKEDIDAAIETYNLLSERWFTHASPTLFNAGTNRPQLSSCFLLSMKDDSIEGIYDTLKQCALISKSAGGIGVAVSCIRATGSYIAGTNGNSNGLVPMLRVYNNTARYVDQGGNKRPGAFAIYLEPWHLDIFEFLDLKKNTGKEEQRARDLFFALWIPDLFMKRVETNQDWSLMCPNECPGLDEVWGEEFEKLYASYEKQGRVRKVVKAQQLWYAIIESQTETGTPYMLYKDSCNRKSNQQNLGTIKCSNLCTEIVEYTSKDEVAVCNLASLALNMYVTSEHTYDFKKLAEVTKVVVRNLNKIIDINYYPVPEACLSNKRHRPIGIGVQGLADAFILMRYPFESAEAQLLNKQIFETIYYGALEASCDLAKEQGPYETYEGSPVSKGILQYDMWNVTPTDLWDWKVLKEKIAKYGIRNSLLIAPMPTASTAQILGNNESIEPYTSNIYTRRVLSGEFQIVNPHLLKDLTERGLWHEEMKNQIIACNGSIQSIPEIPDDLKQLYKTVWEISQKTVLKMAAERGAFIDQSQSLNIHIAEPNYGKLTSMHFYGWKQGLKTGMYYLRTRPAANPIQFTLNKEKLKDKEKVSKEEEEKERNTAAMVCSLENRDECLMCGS
# Biological target: T1, human ribonucleotide reductase large subunit RRM1 (human)
row,"RNR activity of the reconstituted complex (CDP to dCDP, HPLC), percent of wild-type hRRM2B; hRRM1 2 μM, hRRM2B 6 μM (% of wild type)",Binder
1,33,hRRM2B N221S (enzyme) MGDPERPEAAGLDQDERSSSDTNESEIKSNEEPLLRKSSRRFVIFPIQYPDIWKMYKQAQASFWTAEEVDLSKDLPHWNKLKADEKYFISHILAFFAASDGIVNENLVERFSQEVQVPEARCFYGFQILIENVHSEMYSLLIDTYIRDPKKREFLFNAIETMPYVKKKADWALRWIADRKSTFGERVVAFAAVEGVFFSGSFAAIFWLKKRGLMPGLTFSSELISRDEGLHCDFACLMFQYLVNKPSEERVREIIVDAVKIEQEFLTEALPVGLIGMNCILMKQYIEFVADRLLVELGFSKVFQAENPFDFMENISLEGKTNFFEKRVSEYQRFAVMAETTDNVFTLDADF
2,11.7,hRRM2B F206G (enzyme) MGDPERPEAAGLDQDERSSSDTNESEIKSNEEPLLRKSSRRFVIFPIQYPDIWKMYKQAQASFWTAEEVDLSKDLPHWNKLKADEKYFISHILAFFAASDGIVNENLVERFSQEVQVPEARCFYGFQILIENVHSEMYSLLIDTYIRDPKKREFLFNAIETMPYVKKKADWALRWIADRKSTFGERVVAFAAVEGVFFSGSFAAIGWLKKRGLMPGLTFSNELISRDEGLHCDFACLMFQYLVNKPSEERVREIIVDAVKIEQEFLTEALPVGLIGMNCILMKQYIEFVADRLLVELGFSKVFQAENPFDFMENISLEGKTNFFEKRVSEYQRFAVMAETTDNVFTLDADF
3,21.5,hRRM2B F202G (enzyme) MGDPERPEAAGLDQDERSSSDTNESEIKSNEEPLLRKSSRRFVIFPIQYPDIWKMYKQAQASFWTAEEVDLSKDLPHWNKLKADEKYFISHILAFFAASDGIVNENLVERFSQEVQVPEARCFYGFQILIENVHSEMYSLLIDTYIRDPKKREFLFNAIETMPYVKKKADWALRWIADRKSTFGERVVAFAAVEGVFFSGSGAAIFWLKKRGLMPGLTFSNELISRDEGLHCDFACLMFQYLVNKPSEERVREIIVDAVKIEQEFLTEALPVGLIGMNCILMKQYIEFVADRLLVELGFSKVFQAENPFDFMENISLEGKTNFFEKRVSEYQRFAVMAETTDNVFTLDADF
4,19.1,hRRM2B F198G (enzyme) MGDPERPEAAGLDQDERSSSDTNESEIKSNEEPLLRKSSRRFVIFPIQYPDIWKMYKQAQASFWTAEEVDLSKDLPHWNKLKADEKYFISHILAFFAASDGIVNENLVERFSQEVQVPEARCFYGFQILIENVHSEMYSLLIDTYIRDPKKREFLFNAIETMPYVKKKADWALRWIADRKSTFGERVVAFAAVEGVFGSGSFAAIFWLKKRGLMPGLTFSNELISRDEGLHCDFACLMFQYLVNKPSEERVREIIVDAVKIEQEFLTEALPVGLIGMNCILMKQYIEFVADRLLVELGFSKVFQAENPFDFMENISLEGKTNFFEKRVSEYQRFAVMAETTDNVFTLDADF
